Data as given in the DeepSol protein solubility set.

Assay: soluble on expression in E. coli; label from the status in PepcDB or PDB records

Sequence	soluble on expression in E. coli
MKIGVFDSGVGGLSVLKSLYEARLFDEIIYYGDTARVPYGVKDKDTIIKFCLEALDFFEQFQIDMLIIACNTASAYALDALRAKAHFPVYGVIDAGVEATIKALHDKNKEILVIATKATIKSEEYQKRLLSQGYTNINALATGLFVPMVEEGIFEGDFLQSAMEYYFKNITTPDALILACTHFPLLGRSLSKYFGDKTKLIHSGDAIVEFLKERENIDLKNHKAKLHFYASSDVESLKNTAKIWLNLLRK	not soluble
MVSAGGVVLKGDPPEVLVVSLRGGRVVTLPKGQVEPGERYPETAVREVREETGVEASVLAPLGRVRYYFTVHEPEGPVTVSKEVHYFLMRHLGGTPRPQLTEVEDAFFLPASEALERLSYPNEREMLKRALLRLRARAKKG	soluble
MNNILNQIKKEVNMDLLNGLWPGFKRAAFALYDDEHVYVFHHPLFLKDNDEYRVLKWEEQFKGDTCILFKDYPTAIVNMNRYKDYASLLAIVVHELFHCYQYLNKESRFPNESLGFQYPIIEENIQLRNKERICLYDAVHCKSQAEKNNYIKQFIELREQRASVMGEAFITYEYMVESIEGPAWYVEMNAYNTVCKSDESDTLRKYSGLILDVYDANCNMRKSCYSSGMLLCLLLDEILPEWKISFFNSDKSLYAFLKQNINVDLSLNNEITISKETKQILHFVQNERDKEIKQFYGEEGYDLYIVGDIKLNSFNPMNVKLNGNKVLHKTFLSVSIHNKTYMINQPVLASFEEDFKNMTQVHIIMNEKPIETKNG	not soluble
MLRQIGEFYHQGEKDDTSRVWMTCWHHGGRILASCGDDKAVRVWSLVGEPDSKMRLECRTTLDDSHTRAVRSVAFSNDGKCLVSASFDASVVVYQQEDGEFAEVNKLEGHESEVKCAVFSKSDEFLATCSRDKSVWFWQQDEDEDFSVSSILQPHTQDVKQVAWHPTEDLLVSCSYDSSIRFYRFDGEDWVTQQKIDGCHVGTVWSIAFDTEGHRLVTVGEDHCIQLFVRENIGSKSADQDTWKSVARYDVENTRWPLYSVAWNSTNDVIATGGGDCKIRLFKISSTPESPVIEHLGVVGRHELDVNHVAWNPNPKFSNLLTSASDDGTIRLWELEI	not soluble
MDSWYPSKELIEACLKKGFHVIAMLKTNRILYPKGIAVQAKQFARYLEPRDTRLVTVGNERYRVYRYEGALNGLDDAVVLLTWKADQPMTPEHLHGVLSTDRELSDEDILRYYAQRWSIECFFRQVKDQLKLDGYRVRHIRAVKRYWVTVLLACVYSIAESQQDISAGLNLLRTRKGHSLIEFIYDAAKQDIPIDVVKKQLHVA	not soluble
MSLDARKNNVTIKVGMIGDSSIGKTSLMVTYVQGSFDEESTQTLGVNFMEKTISIRNTEITFSIWDLGGQREFVNMLPMVCNDAVAILFMFDLSRKSTLNSIKEWYRQARGFNKTAVPILIGTKYDHFMTFPREDQEEITKQARRYAKAMKASLVFCSTSHSINVQKIFKIVLAKVFDLKCTIPEIKNVGDPILEYIDREGHHHHHH	soluble
GNYENINSNPYEAPDLSADGYALGSAMNNLAGCVVSPDVNTAQFTDCLLGGPLGGYFADSNAGFTETISNFNPKDDWSRVFLKSDKIIPTLYSNLTQVKLVSQNTNDPVPYAIAQVIKVAAMHRVTDAFGPIPYSQIGANGEIATPYDSQEVTYNTFFDELNAAIATLNENSNEQLVPTADYIYKGDVKKWIRFANSLKLRLAIRIAYANPVKAQQMAEEAVNPANGGVIESNADNATWNYFETSQNPIYVATRYNQVQTSDHGGVPCLTGGDTHAAADIICYMNGYKDNRREKFFTKSEWAGQDYVGMRRGIVIPELKTTGHKYSGVNIAPTSPLYWMNAAEVAFLRAEGQAVFNFSMGGTAESFYNQGIRLSFEQWGADGVEDYLKDDVNKPTAYTDPAGTNTYQNALSNITIKWNDSADKEEKQERIIVQKWIANWQLGNEAWADFRRTGYPKLIPVKENKSGGVVDSEKGARRMPYPLDEFVSNKANVEYAIANYLHGADNMATDVWWASKK	soluble
EVQLVESGGGLVQPGGSLRLSCAASGFTFSDYGIAWVRQAPGKGLEWVAFISDLAYTIYYADTVTGRFTISRDNSKNTLYLQMNSLRAEDTAVYYCARDNWDAMDYWGQGTLVTVSSASTKGPSVFPLAPSSKSTSGGTAALGCLVKDYFPEPVTVSWNSGALTSGVHTFPAVLQSSGLYSLSSVVTVPSSSLGTQTYICNVNHKPSNTKVDKKVEPKSCDKTHTC	soluble
